Test results taken from publication PMC6449189.

Experiments:
AcrVA4 = test: SEC-MALS
[1] = molecular target: Lachnospiraceae bacterium (ND2006) Cas12a (Lachnospiraceae bacterium (ND2006)); test: SEC-MALS

AcrVA4 (natural protein)
stoichiometry N (AcrVA4): 2 | stoichiometry N (AcrVA4 per LbCas12a-crRNA) [1]: 2
